According to PMC11548876:

Columns and labels:
[1] = molecular target: CcBurs-β (Cacopsylla chinensis); assay: non-reduced versus reduced SDS-PAGE with western blot; His-tagged subunits expressed separately or co-expressed in HEK293T, collected from the medium and purified on Ni-NTA; 12% SDS-PAGE (non-reduced) and 15% SDS-PAGE (reduced), anti-His blot
[2] = molecular target: CcBurs-α (Cacopsylla chinensis); assay: as above

| stoichiometry N [1] | stoichiometry N [2] | Substance |
| --- | --- | --- |
| 2 | – | CcBurs-β (natural protein) |
| – | 2 | CcBurs-α (natural protein) |
